Measurements taken from paper PMC10923862.

Assays:
[1] = biological target: HexaPro spike without foldon (SARS-CoV-2 (Wuhan-Hu-1)) (UniProt P0DTC2); assay: SEC
[2] = biological target: HexaPro, soluble SARS-CoV-2 spike ectodomain carrying a foldon domain (SARS-CoV-2 (Wuhan-Hu-1) | not stated) (UniProt P0DTC2); assay: SEC-MALS
[3] = biological target: HexaPro, soluble SARS-CoV-2 spike ectodomain carrying a foldon domain (SARS-CoV-2 (Wuhan-Hu-1) | not stated) (UniProt P0DTC2); assay: SEC
[4] = biological target: S-3P, soluble SARS-CoV-2 spike ectodomain with C-terminal foldon trimerization domain (SARS-CoV-2 (Wuhan-Hu-1) | not stated) (UniProt P0DTC2); assay: SEC-MALS
[5] = biological target: S-3P, soluble SARS-CoV-2 spike ectodomain with C-terminal foldon trimerization domain (SARS-CoV-2 (Wuhan-Hu-1) | not stated) (UniProt P0DTC2); assay: SEC
[6] = biological target: S-locked, soluble SARS-CoV-2 spike ectodomain with the disulfide 413C-987C that locks the RBD in the closed conformation, without heterologous trimerization domain (SARS-CoV-2 (Wuhan-Hu-1)) (UniProt P0DTC2); assay: SEC-MALS

Work on “HexaPro spike without foldon (from UniProt P0DTC2 14-1208)” yielded a stoichiometry N [1] of 3.

Work on “HexaPro, soluble SARS-CoV-2 spike ectodomain carrying a foldon domain (from UniProt P0DTC2 14-1208)” yielded a stoichiometry N [2] of 3 and a stoichiometry N [3] of 3.

“S-3P, soluble SARS-CoV-2 spike ectodomain with C-terminal foldon trimerization domain (from UniProt P0DTC2 14-1208)” showed a stoichiometry N [4] of 3 and a stoichiometry N [5] of 3.

With “S-locked, soluble SARS-CoV-2 spike ectodomain with the disulfide 413C-987C that locks the RBD in the closed conformation, without heterologous trimerization domain (from UniProt P0DTC2 14-1208)” the stoichiometry N [6] was 3.
